Reference: publication PMC8124189, “Detection of the First Epoxyalcohol Synthase/Allene Oxide Synthase (CYP74 Clan) in the Lancelet (Branchiostoma belcheri, Chordata)” (International Journal of Molecular Sciences, 2021)

Legend:
Test in all cases: purified protein
Format in all cases: biochemical, Branchiostoma belcheri
Settings in all cases: Na phosphate buffer (pH range 6.0-8.0 stated; optimum pH 7.0), 25 °C, substrate 5-150 μM
[1] = substrate: CC/C=C\C[C@@H](/C=C/C=C\CCCCCCCC(=O)O)OO
[2] = substrate: CCCCC[C@@H](/C=C/C=C\CCCCCCCC(=O)O)OO
[3] = substrate: CC/C=C\C/C=C\C=C\[C@H](CCCCCCCC(=O)O)OO
[4] = substrate: CCCCC/C=C\C=C\[C@H](CCCCCCCC(=O)O)OO

B1: CYP440A18 (BbEAS/AOS) (Branchiostoma belcheri) (protein)
chain: MGNAIGYLKWLGQGKQAFAPDRKEDFVETNIGFPCRVVTGNKAVQSVFDIDLFKKEEFFFGLIEIRKEFTEGVCPSVTSNGKIHEKNKALMMDVIAGAYEEIPTSTADAVLSNIATWGSTPTDFESKLMAVSAGIFLPTIFGRSTRFNPEDVNLYVKGATELRSDILAAVTREDLTETRRGMRSVLEKIKTSERYSQLIDLGRSHGLDEASTTGQLLFCVMFNAVGGTATNLVATFGRLDTISAEDRQELREEALAALRKHGGLTRAALEEMPKIESFVLEVLRTCPSPGVWSHIAARPTTVKYTTASGPKEVNIKEGERVYASPYWALRDPAVFDKPDDFVWRRFLGPEGEALREHHVTFHGRLTDSAAVNNHMCPGRDVALSVIKGSIAILNTFFGWELQERPFWTGTKVSRIGQPDNVVKVKSFWLQHPDDLKEIFPSHFEEIHDSLNSAVLQCP
notes: full-length, 458 aa; codon-adapted synthetic gene in pET-23a; C-terminal His tag; E. coli BL21(DE3)pLysS; IMAC purified
[1]
  Km: 17.6 µM
  kcat: 432 s⁻¹
  kcat/Km: 2.45e+07 M⁻¹ s⁻¹
[2]
  Km: 18.6 µM
  kcat: 174 s⁻¹
  kcat/Km: 9.4e+06 M⁻¹ s⁻¹
[3]
  Km: 31.8 µM
  kcat: 248 s⁻¹
  kcat/Km: 7.8e+06 M⁻¹ s⁻¹
[4]
  Km: 37.0 µM
  kcat: 164 s⁻¹
  kcat/Km: 4.4e+06 M⁻¹ s⁻¹
